Laboratory results taken from IntAct's records for PubMed 22653441.

B1: Serine/threonine-protein kinase PAK 4 (Homo sapiens), O96013 (parent)
chain: MFGKRKKRVEISAPSNFEHRVHTGFDQHEQKFTGLPRQWQSLIEESARRPKPLVDPACITSIQPGAPKTIVRGSKGAKDGALTLLLDEFENMSVTRSNSLRRDSPPPPARARQENGMPEEPATTARGGPGKAGSRGRFAGHSEAGGGSGDRRRAGPEKRPKSSREGSGGPQESSRDKRPLSGPDVGTPQPAGLASGAKLAAGRPFNTYPRADTDHPSRGAQGEPHDVAPNGPSAGGLAIPQSSSSSSRPPTRARGAPSPGVLGPHASEPQLAPPACTPAAPAVPGPPGPRSPQREPQRVSHEQFRAALQLVVDPGDPRSYLDNFIKIGEGSTGIVCIATVRSSGKLVAVKKMDLRKQQRRELLFNEVVIMRDYQHENVVEMYNSYLVGDELWVVMEFLEGGALTDIVTHTRMNEEQIAAVCLAVLQALSVLHAQGVIHRDIKSDSILLTHDGRVKLSDFGFCAQVSKEVPRRKSLVGTPYWMAPELISRLPYGPEVDIWSLGIMVIEMVDGEPPYFNEPPLKAMKMIRDNLPPRLKNLHKVSPSLKGFLDRLLVRDPAQRATAAELLKHPFLAKAGPPASIVPLMRQNRTR

Variants of: B1
Conditions: with cdc42_human CDC42, P60953
Sequence of cdc42_human CDC42, P60953 (P60953 whole entry, looked up): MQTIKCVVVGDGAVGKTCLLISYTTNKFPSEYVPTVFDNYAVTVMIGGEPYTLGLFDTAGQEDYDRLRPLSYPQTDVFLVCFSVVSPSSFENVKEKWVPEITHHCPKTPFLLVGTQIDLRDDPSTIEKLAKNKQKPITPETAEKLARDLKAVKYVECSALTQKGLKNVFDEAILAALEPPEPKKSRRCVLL

| effect of a mutation on the interaction | Variant |
| --- | --- |
| disrupting interaction | T60E |
| disrupting interaction | R49E |
| disrupting interaction | R48E |
